Numbered stars: 1 amine (or outer) side, 2 acyl side, 3 side chain; on linkers, the order of the positions; unused ones are H or OH. Bridge positions count the residues as written; N and C are the ends. Side chains are listed from the residue outwards. Ends that are not written are not given here. * marks the point of attachment. C20 diacid = O=C(O)CCCCCCCCCCCCCCCCCCC(=O)*; γGlu = O=C(O)[C@H](CCC(=O)[*:2])N[*:1]
T1: human calcitonin receptor (human, UniProt P30988 25-474)
T1 construct: whole, on cells; also called hCTR; hCT
T1 sequence (looked up): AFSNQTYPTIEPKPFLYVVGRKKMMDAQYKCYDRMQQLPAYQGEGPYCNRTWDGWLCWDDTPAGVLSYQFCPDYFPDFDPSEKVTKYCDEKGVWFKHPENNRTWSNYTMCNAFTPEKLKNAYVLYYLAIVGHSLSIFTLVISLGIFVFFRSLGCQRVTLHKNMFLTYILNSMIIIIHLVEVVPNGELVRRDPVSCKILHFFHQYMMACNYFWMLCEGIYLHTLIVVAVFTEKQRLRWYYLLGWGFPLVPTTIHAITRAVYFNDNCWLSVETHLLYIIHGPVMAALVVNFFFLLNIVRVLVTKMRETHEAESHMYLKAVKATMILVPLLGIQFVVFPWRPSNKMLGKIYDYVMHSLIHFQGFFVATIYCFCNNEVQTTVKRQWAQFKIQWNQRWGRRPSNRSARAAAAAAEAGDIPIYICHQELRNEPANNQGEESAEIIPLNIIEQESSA

B1: N^ε1-[(4S)-4-carboxy-4-[[(4S)-4-carboxy-4-(19-carboxynonadecanoylamino)butanoyl]amino]butanoyl]-[Glu14,Arg17,Pro21,Pro27,Arg34]-h-amylin (peptide)
peptide: K([γGlu-γGlu-C20 diacid])CNTATCATQRLAEFLRHSSPNFGAIPSSTNVGRNTY-NH2
modifications: disulfide 2-7; N-terminus assumed
SMILES: CC[C@H](C)[C@H](NC(=O)[C@H](C)NC(=O)CNC(=O)[C@H](Cc1ccccc1)NC(=O)[C@H](CC(N)=O)NC(=O)[C@@H]1CCCN1C(=O)[C@H](CO)NC(=O)[C@H](CO)NC(=O)[C@H](Cc1c[nH]cn1)NC(=O)[C@H](CCCNC(=N)N)NC(=O)[C@H](CC(C)C)NC(=O)[C@H](Cc1ccccc1)NC(=O)[C@H](CCC(=O)O)NC(=O)[C@H](C)NC(=O)[C@H](CC(C)C)NC(=O)[C@H](CCCNC(=N)N)NC(=O)[C@H](CCC(N)=O)NC(=O)[C@@H](NC(=O)[C@H](C)NC(=O)[C@@H]1CSSC[C@H](NC(=O)[C@@H](N)CCCCNC(=O)CC[C@H](NC(=O)CC[C@H](NC(=O)CCCCCCCCCCCCCCCCCCC(=O)O)C(=O)O)C(=O)O)C(=O)N[C@@H](CC(N)=O)C(=O)N[C@@H]([C@@H](C)O)C(=O)N[C@@H](C)C(=O)N[C@@H]([C@@H](C)O)C(=O)N1)[C@@H](C)O)C(=O)N1CCC[C@H]1C(=O)N[C@@H](CO)C(=O)N[C@@H](CO)C(=O)N[C@H](C(=O)N[C@@H](CC(N)=O)C(=O)N[C@H](C(=O)NCC(=O)N[C@@H](CCCNC(=N)N)C(=O)N[C@@H](CC(N)=O)C(=O)N[C@H](C(=O)N[C@@H](Cc1ccc(O)cc1)C(N)=O)[C@@H](C)O)C(C)C)[C@@H](C)O
notes: also called compound 88
B2: N^ε1-[(4S)-4-carboxy-4-[[(4S)-4-carboxy-4-(19-carboxynonadecanoylamino)butanoyl]amino]butanoyl]-[Glu14,Arg17,Pro21,Pro27,Arg35]-h-amylin (peptide)
peptide: K([γGlu-γGlu-C20 diacid])CNTATCATQRLAEFLRHSSPNFGAIPSSTNVGSRTY-NH2
modifications: disulfide 2-7; N-terminus assumed
SMILES: CC[C@H](C)[C@H](NC(=O)[C@H](C)NC(=O)CNC(=O)[C@H](Cc1ccccc1)NC(=O)[C@H](CC(N)=O)NC(=O)[C@@H]1CCCN1C(=O)[C@H](CO)NC(=O)[C@H](CO)NC(=O)[C@H](Cc1c[nH]cn1)NC(=O)[C@H](CCCNC(=N)N)NC(=O)[C@H](CC(C)C)NC(=O)[C@H](Cc1ccccc1)NC(=O)[C@H](CCC(=O)O)NC(=O)[C@H](C)NC(=O)[C@H](CC(C)C)NC(=O)[C@H](CCCNC(=N)N)NC(=O)[C@H](CCC(N)=O)NC(=O)[C@@H](NC(=O)[C@H](C)NC(=O)[C@@H]1CSSC[C@H](NC(=O)[C@@H](N)CCCCNC(=O)CC[C@H](NC(=O)CC[C@H](NC(=O)CCCCCCCCCCCCCCCCCCC(=O)O)C(=O)O)C(=O)O)C(=O)N[C@@H](CC(N)=O)C(=O)N[C@@H]([C@@H](C)O)C(=O)N[C@@H](C)C(=O)N[C@@H]([C@@H](C)O)C(=O)N1)[C@@H](C)O)C(=O)N1CCC[C@H]1C(=O)N[C@@H](CO)C(=O)N[C@@H](CO)C(=O)N[C@H](C(=O)N[C@@H](CC(N)=O)C(=O)N[C@H](C(=O)NCC(=O)N[C@@H](CO)C(=O)N[C@@H](CCCNC(=N)N)C(=O)N[C@H](C(=O)N[C@@H](Cc1ccc(O)cc1)C(N)=O)[C@@H](C)O)C(C)C)[C@@H](C)O
notes: also called compound 89
B3: N^ε1-[(4S)-4-carboxy-4-[[(4S)-4-carboxy-4-(19-carboxynonadecanoylamino)butanoyl]amino]butanoyl]-[Glu14,Arg17,Pro21,Pro27,His34,Glu35]-h-amylin (peptide)
peptide: K([γGlu-γGlu-C20 diacid])CNTATCATQRLAEFLRHSSPNFGAIPSSTNVGHETY-NH2
modifications: disulfide 2-7; N-terminus assumed
SMILES: CC[C@H](C)[C@H](NC(=O)[C@H](C)NC(=O)CNC(=O)[C@H](Cc1ccccc1)NC(=O)[C@H](CC(N)=O)NC(=O)[C@@H]1CCCN1C(=O)[C@H](CO)NC(=O)[C@H](CO)NC(=O)[C@H](Cc1c[nH]cn1)NC(=O)[C@H](CCCNC(=N)N)NC(=O)[C@H](CC(C)C)NC(=O)[C@H](Cc1ccccc1)NC(=O)[C@H](CCC(=O)O)NC(=O)[C@H](C)NC(=O)[C@H](CC(C)C)NC(=O)[C@H](CCCNC(=N)N)NC(=O)[C@H](CCC(N)=O)NC(=O)[C@@H](NC(=O)[C@H](C)NC(=O)[C@@H]1CSSC[C@H](NC(=O)[C@@H](N)CCCCNC(=O)CC[C@H](NC(=O)CC[C@H](NC(=O)CCCCCCCCCCCCCCCCCCC(=O)O)C(=O)O)C(=O)O)C(=O)N[C@@H](CC(N)=O)C(=O)N[C@@H]([C@@H](C)O)C(=O)N[C@@H](C)C(=O)N[C@@H]([C@@H](C)O)C(=O)N1)[C@@H](C)O)C(=O)N1CCC[C@H]1C(=O)N[C@@H](CO)C(=O)N[C@@H](CO)C(=O)N[C@H](C(=O)N[C@@H](CC(N)=O)C(=O)N[C@H](C(=O)NCC(=O)N[C@@H](Cc1c[nH]cn1)C(=O)N[C@@H](CCC(=O)O)C(=O)N[C@H](C(=O)N[C@@H](Cc1ccc(O)cc1)C(N)=O)[C@@H](C)O)C(C)C)[C@@H](C)O
B4: N^ε1-[(4S)-4-carboxy-4-[[(4S)-4-carboxy-4-(19-carboxynonadecanoylamino)butanoyl]amino]butanoyl]-[Glu14,Arg17,Pro21,Pro27,His34]-h-amylin (peptide)
peptide: K([γGlu-γGlu-C20 diacid])CNTATCATQRLAEFLRHSSPNFGAIPSSTNVGHNTY-NH2
modifications: disulfide 2-7; N-terminus assumed
SMILES: CC[C@H](C)[C@H](NC(=O)[C@H](C)NC(=O)CNC(=O)[C@H](Cc1ccccc1)NC(=O)[C@H](CC(N)=O)NC(=O)[C@@H]1CCCN1C(=O)[C@H](CO)NC(=O)[C@H](CO)NC(=O)[C@H](Cc1c[nH]cn1)NC(=O)[C@H](CCCNC(=N)N)NC(=O)[C@H](CC(C)C)NC(=O)[C@H](Cc1ccccc1)NC(=O)[C@H](CCC(=O)O)NC(=O)[C@H](C)NC(=O)[C@H](CC(C)C)NC(=O)[C@H](CCCNC(=N)N)NC(=O)[C@H](CCC(N)=O)NC(=O)[C@@H](NC(=O)[C@H](C)NC(=O)[C@@H]1CSSC[C@H](NC(=O)[C@@H](N)CCCCNC(=O)CC[C@H](NC(=O)CC[C@H](NC(=O)CCCCCCCCCCCCCCCCCCC(=O)O)C(=O)O)C(=O)O)C(=O)N[C@@H](CC(N)=O)C(=O)N[C@@H]([C@@H](C)O)C(=O)N[C@@H](C)C(=O)N[C@@H]([C@@H](C)O)C(=O)N1)[C@@H](C)O)C(=O)N1CCC[C@H]1C(=O)N[C@@H](CO)C(=O)N[C@@H](CO)C(=O)N[C@H](C(=O)N[C@@H](CC(N)=O)C(=O)N[C@H](C(=O)NCC(=O)N[C@@H](Cc1c[nH]cn1)C(=O)N[C@@H](CC(N)=O)C(=O)N[C@H](C(=O)N[C@@H](Cc1ccc(O)cc1)C(N)=O)[C@@H](C)O)C(C)C)[C@@H](C)O
notes: also called compound 87
B5: N^ε1-[(4S)-4-carboxy-4-[[(4S)-4-carboxy-4-(19-carboxynonadecanoylamino)butanoyl]amino]butanoyl]-[Glu14,Arg17,Pro21,Pro27,Pro34,Arg35]-h-amylin (peptide)
peptide: K([γGlu-γGlu-C20 diacid])CNTATCATQRLAEFLRHSSPNFGAIPSSTNVGPRTY-NH2
modifications: disulfide 2-7; N-terminus assumed
SMILES: CC[C@H](C)[C@H](NC(=O)[C@H](C)NC(=O)CNC(=O)[C@H](Cc1ccccc1)NC(=O)[C@H](CC(N)=O)NC(=O)[C@@H]1CCCN1C(=O)[C@H](CO)NC(=O)[C@H](CO)NC(=O)[C@H](Cc1c[nH]cn1)NC(=O)[C@H](CCCNC(=N)N)NC(=O)[C@H](CC(C)C)NC(=O)[C@H](Cc1ccccc1)NC(=O)[C@H](CCC(=O)O)NC(=O)[C@H](C)NC(=O)[C@H](CC(C)C)NC(=O)[C@H](CCCNC(=N)N)NC(=O)[C@H](CCC(N)=O)NC(=O)[C@@H](NC(=O)[C@H](C)NC(=O)[C@@H]1CSSC[C@H](NC(=O)[C@@H](N)CCCCNC(=O)CC[C@H](NC(=O)CC[C@H](NC(=O)CCCCCCCCCCCCCCCCCCC(=O)O)C(=O)O)C(=O)O)C(=O)N[C@@H](CC(N)=O)C(=O)N[C@@H]([C@@H](C)O)C(=O)N[C@@H](C)C(=O)N[C@@H]([C@@H](C)O)C(=O)N1)[C@@H](C)O)C(=O)N1CCC[C@H]1C(=O)N[C@@H](CO)C(=O)N[C@@H](CO)C(=O)N[C@H](C(=O)N[C@@H](CC(N)=O)C(=O)N[C@H](C(=O)NCC(=O)N1CCC[C@H]1C(=O)N[C@@H](CCCNC(=N)N)C(=O)N[C@H](C(=O)N[C@@H](Cc1ccc(O)cc1)C(N)=O)[C@@H](C)O)C(C)C)[C@@H](C)O
notes: also called compound 110
B6: N^ε1-[(4S)-4-carboxy-4-[[(4S)-4-carboxy-4-(19-carboxynonadecanoylamino)butanoyl]amino]butanoyl]-[Glu14,Arg17,Pro21,Pro27,Pro34,Glu35]-h-amylin (peptide)
peptide: K([γGlu-γGlu-C20 diacid])CNTATCATQRLAEFLRHSSPNFGAIPSSTNVGPETY-NH2
modifications: disulfide 2-7; N-terminus assumed
SMILES: CC[C@H](C)[C@H](NC(=O)[C@H](C)NC(=O)CNC(=O)[C@H](Cc1ccccc1)NC(=O)[C@H](CC(N)=O)NC(=O)[C@@H]1CCCN1C(=O)[C@H](CO)NC(=O)[C@H](CO)NC(=O)[C@H](Cc1c[nH]cn1)NC(=O)[C@H](CCCNC(=N)N)NC(=O)[C@H](CC(C)C)NC(=O)[C@H](Cc1ccccc1)NC(=O)[C@H](CCC(=O)O)NC(=O)[C@H](C)NC(=O)[C@H](CC(C)C)NC(=O)[C@H](CCCNC(=N)N)NC(=O)[C@H](CCC(N)=O)NC(=O)[C@@H](NC(=O)[C@H](C)NC(=O)[C@@H]1CSSC[C@H](NC(=O)[C@@H](N)CCCCNC(=O)CC[C@H](NC(=O)CC[C@H](NC(=O)CCCCCCCCCCCCCCCCCCC(=O)O)C(=O)O)C(=O)O)C(=O)N[C@@H](CC(N)=O)C(=O)N[C@@H]([C@@H](C)O)C(=O)N[C@@H](C)C(=O)N[C@@H]([C@@H](C)O)C(=O)N1)[C@@H](C)O)C(=O)N1CCC[C@H]1C(=O)N[C@@H](CO)C(=O)N[C@@H](CO)C(=O)N[C@H](C(=O)N[C@@H](CC(N)=O)C(=O)N[C@H](C(=O)NCC(=O)N1CCC[C@H]1C(=O)N[C@@H](CCC(=O)O)C(=O)N[C@H](C(=O)N[C@@H](Cc1ccc(O)cc1)C(N)=O)[C@@H](C)O)C(C)C)[C@@H](C)O

target: T1, human calcitonin receptor; assay: SPA radioligand competition (125I-calcitonin), membranes of BHK cells with human calcitonin receptor
Method in brief: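 BHK hCTR membranes 35 ng/μL + SPA beads 0.05 mg/well; buffer 50 mM Hepes pH 7.4, 1 mM CaCl2, 5 mM MgCl₂, 0.1% OA, 0.02% Tween20. 120 min, 25° C., shaking. Scintillation count; IC50 by one-site binding competition.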

| Binder | IC50 |
| --- | --- |
| B1 | 34.9 nM |
| B2 | 32.5 nM |
| B3 | 15.2 nM |
| B4 | 22.5 nM |
| B5 | 17.5 nM |
| B6 | 2.13 nM |

target: T1, human calcitonin receptor; assay: ratio of IC50 at human calcitonin receptor to IC50 at human amylin receptor (SPA competition assays)
Method in brief: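 IC₅₀ values were derived by one-site competition analysis of SPA counts. Cell membranes (35 ng/μL) with SPA beads were incubated with test compounds for 120 min at 25° C in Hepes buffer, pH 7.4, containing CaCl2, MgCl₂, OA and Tween20.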

| Binder | Ratio hCT/hAmylin binding |
| --- | --- |
| B1 | 46.5 |
| B2 | 28 |
| B3 | 29.1 |
| B4 | 35.6 |
| B5 | 53.6 |
| B6 | 17.6 |

— patent publication US20140087995A1 (published 2014)
